The experiment has as its target heat shock cognate 70 (Hsc70), human constitutively expressed Hsp70, wild type (human) (UniProt P11142).

Sequence of heat shock cognate 70 (Hsc70), human constitutively expressed Hsp70, wild type (human) (P11142 whole entry): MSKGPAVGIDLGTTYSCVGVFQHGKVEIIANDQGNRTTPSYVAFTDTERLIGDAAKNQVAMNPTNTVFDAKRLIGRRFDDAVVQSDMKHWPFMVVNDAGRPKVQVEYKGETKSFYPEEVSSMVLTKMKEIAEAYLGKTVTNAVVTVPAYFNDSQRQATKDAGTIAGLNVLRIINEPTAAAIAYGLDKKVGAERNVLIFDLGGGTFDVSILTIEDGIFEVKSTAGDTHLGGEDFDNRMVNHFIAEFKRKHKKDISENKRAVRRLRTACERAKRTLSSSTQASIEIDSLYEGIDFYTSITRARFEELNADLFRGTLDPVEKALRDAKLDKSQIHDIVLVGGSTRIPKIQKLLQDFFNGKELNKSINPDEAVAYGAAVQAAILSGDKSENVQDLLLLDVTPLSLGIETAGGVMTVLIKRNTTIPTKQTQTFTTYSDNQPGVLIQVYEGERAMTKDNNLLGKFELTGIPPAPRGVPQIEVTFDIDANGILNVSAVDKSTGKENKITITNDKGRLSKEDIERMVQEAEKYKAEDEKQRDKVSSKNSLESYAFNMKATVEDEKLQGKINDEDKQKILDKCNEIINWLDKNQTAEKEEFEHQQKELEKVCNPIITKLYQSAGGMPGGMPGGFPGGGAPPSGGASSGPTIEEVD

Regarding “SNAP-25 (SNAP-25B, Cys-less CS mutant), His tag cleaved (from UniProt P60880-1 1-206) (natural protein)”, the lag time of SNAP-25 aggregation (50 μM SNAP-25, optical density at 360 nm, 37 °C) in the presence of Hsc70 (5 μM); ∼38 h without Hsc70 worked out at 65 h.

(Values after article PMC11697113, “The Hsc70 system maintains the synaptic SNARE protein SNAP-25 in an assembly-competent state and delays its aggregation [drawing 1]” (The Journal of Biological Chemistry, 2024).)
